# Patent publication US7067646 (Dana-Farber, dated 2006)
# B1: RB (retinoblastoma protein), endogenous, HeLa extract (other, human, UniProt P06400 2-928, looked up)
# chain: PPKTPRKTAATAAAAAAEPPAPPPPPPPEEDPEQDSGPEDLPLVRLEFEETEEPDFTALCQKLKIPDHVRERAWLTWEKVSSVDGVLGGYIQKKKELWGICIFIAAVDLDEMSFTFTELQKNIEISVHKFFNLLKEIDTSTKVDNAMSRLLKKYDVLFALFSKLERTCELIYLTQPSSSISTEINSALVLKVSWITFLLAKGEVLQMEDDLVISFQLMLCVLDYFIKLSPPMLLKEPYKTAVIPINGSPRTPRRGQNRSARIAKQLENDTRIIEVLCKEHECNIDEVKNVYFKNFIPFMNSLGLVTSNGLPEVENLSKRYEEIYLKNKDLDARLFLDHDKTLQTDSIDSFETQRTPRKSNLDEEVNVIPPHTPVRTVMNTIQQLMMILNSASDQPSENLISYFNNCTVNPKESILKRVKDIGYIFKEKFAKAVGQGCVEIGSQRYKLGVRLYYRVMESMLKSEEERLSIQNFSKLLNDNIFHMSLLACALEVVMATYSRSTSQNLDSGTDLSFPWILNVLNLKAFDFYKVIESFIKAEGNLTREMIKHLERCEHRIMESLAWLSDSPLFDLIKQSKDREGPTDHLESACPLNLPLQNNHTAADMYLSPVRSPKKKGSTTRVNSTANAETQATSAFQTQKPLKSTSLSLFYKKVYRLAYLRLNTLCERLLSEHPELEHIIWTLFQHTLQNEYELMRDRHLDQIMMCSMYGICKVKNIDLKFKIIVTAYKDLPHAVQETFKRVLIKEEEYDSIIVFYNSVFMQRLKTNILQYASTRPPTLSPIPHIPRSPYKFPSSPLRIPGGNIYISPLKSPYKISEGLPTPTKMTPRSRILVSIGESFGTSEKFQKINQMVCNSDRVLKRSAEGSNPPKPLKKLRFDIEGSDEADGSKHLPGESKFQQKLAEMTSTRTRMQKQKMNDSMDTSNKEEK
# notes: Endogenous RB, both phosphorylation forms together
# B2: RB with the FLAG tag at the C-terminus (other, UniProt P06400 2-928, looked up, not shown: small tags and cut ends)
# chain: B1 chain
# notes: also called C-terminally tagged RB
# B3: p107, endogenous, HeLa extract (other, UniProt P28749 1-1068, looked up)
# chain: MFEDKPHAEGAAVVAAAGEALQALCQELNLDEGSAAEALDDFTAIRGNYSLEGEVTHWLACSLYVACRKSIIPTVGKGIMEGNCVSLTRILRSAKLSLIQFFSKMKKWMDMSNLPQEFRERIERLERNFEVSTVIFKKYEPIFLDIFQNPYEEPPKLPRSRKQRRIPCSVKDLFNFCWTLFVYTKGNFRMIGDDLVNSYHLLLCCLDLIFANAIMCPNRQDLLNPSFKGLPSDFHTADFTASEEPPCIIAVLCELHDGLLVEAKGIKEHYFKPYISKLFDRKILKGECLLDLSSFTDNSKAVNKEYEEYVLTVGDFDERIFLGADAEEEIGTPRKFTRDTPLGKLTAQANVEYNLQQHFEKKRSFAPSTPLTGRRYLREKEAVITPVASATQSVSRLQSIVAGLKNAPSDQLINIFESCVRNPVENIMKILKGIGETFCQHYTQSTDEQPGSHIDFAVNRLKLAEILYYKILETVMVQETRRLHGMDMSVLLEQDIFHRSLMACCLEIVLFAYSSPRTFPWIIEVLNLQPFYFYKVIEVVIRSEEGLSRDMVKHLNSIEEQILESLAWSHDSALWEALQVSANKVPTCEEVIFPNNFETGNGGNVQGHLPLMPMSPLMHPRVKEVRTDSGSLRRDMQPLSPISVHERYSSPTAGSAKRRLFGEDPPKEMLMDKIITEGTKLKIAPSSSITAENVSILPGQTLLTMATAPVTGTTGHKVTIPLHGVANDAGEITLIPLSMNTNQESKVKSPVSLTAHSLIGASPKQTNLTKAQEVHSTGINRPKRTGSLALFYRKVYHLASVRLRDLCLKLDVSNELRRKIWTCFEFTLVHCPDLMKDRHLDQLLLCAFYIMAKVTKEERTFQEIMKSYRNQPQANSHVYRSVLLKSIPREVVAYNKNINDDFEMIDCDLEDATKTPDCSSGPVKEERGDLIKFYNTIYVGRVKSFALKYDLANQDHMMDAPPLSPFPHIKQQPGSPRRISQQHSIYISPHKNGSGLTPRSALLYKFNGSPSKSLKDINNMIRQGEQRTKKRVIAIDSDAESPAKRVCQENDDVLLKRLQDVVSERANH
# B4: His-tagged MTAF600 (4529-4851) (other)
# chain: EMNTLNVMLGTLNLALVAEQESKDSGGAAVAEQVLSIMEIILDESNAEPLSEDKGNLLLTGDKDQLVMLLDQINSTFVRSNPSVLQGLLRIIPYLSFGEVEKMQILVERFKPYCNFDKYDEDHSGDDKVFLDCFCKIAAGIKNNSNGHQLKDLILQKGITQNALDYMKKHIPSAKNLDADIWKKFLSRPALPFILRLLRGLAIQHPGTQVLIGTDSIPNLHKLEQVSSDEGIGTLAENLLEALREHPDVNKKIDAARRETRAEKKRMAMAMRQKALGTLGMTTNEKGQVVTKTALLKQMEELIEEPGLTCCICREGYKFQPTK
# notes: Expressed in E. coli; not shown: His tag of vector pET28c
# B5: p130, endogenous, HeLa extract (other, UniProt Q08999 1-1139, looked up)
# chain: MPSGGDQSPPPPPPPPAAAASDEEEEDDGEAEDAAPPAESPTPQIQQRFDELCSRLNMDEAARAEAWDSYRSMSESYTLEGNDLHWLACALYVACRKSVPTVSKGTVEGNYVSLTRILKCSEQSLIEFFNKMKKWEDMANLPPHFRERTERLERNFTVSAVIFKKYEPIFQDIFKYPQEEQPRQQRGRKQRRQPCTVSEIFHFCWVLFIYAKGNFPMISDDLVNSYHLLLCALDLVYGNALQCSNRKELVNPNFKGLSEDFHAKDSKPSSDPPCIIEKLCSLHDGLVLEAKGIKEHFWKPYIRKLYEKKLLKGKEENLTGFLEPGNFGESFKAINKAYEEYVLSVGNLDERIFLGEDAEEEIGTLSRCLNAGSGTETAERVQMKNILQQHFDKSKALRISTPLTGVRYIKENSPCVTPVSTATHSLSRLHTMLTGLRNAPSEKLEQILRTCSRDPTQAIANRLKEMFEIYSQHFQPDEDFSNCAKEIASKHFRFAEMLYYKVLESVIEQEQKRLGDMDLSGILEQDAFHRSLLACCLEVVTFSYKPPGNFPFITEIFDVPLYHFYKVIEVFIRAEDGLCREVVKHLNQIEEQILDHLAWKPESPLWEKIRDNENRVPTCEEVMPPQNLERADEICIAGSPLTPRRVTEVRADTGGLGRSITSPTTLYDRYSSPPASTTRRRLFVENDSPSDGGTPGRMPPQPLVNAVPVQNVSGETVSVTPVPGQTLVTMATATVTANNGQTVTIPVQGIANENGGITFFPVQVNVGGQAQAVTGSIQPLSAQALAGSLSSQQVTGTTLQVPGQVAIQQISPGGQQQKQGQSVTSSSNRPRKTSSLSLFFRKVYHLAAVRLRDLCAKLDISDELRKKIWTCFEFSIIQCPELMMDRHLDQLLMCAIYVMAKVTKEDKSFQNIMRCYRTQPQARSQVYRSVLIKGKRKRRNSGSSDSRSHQNSPTELNKDRTSRDSSPVMRSSSTLPVPQPSSAPPTPTRLTGANSDMEEEERGDLIQFYNNIYIKQIKTFAMKYSQANMDAPPLSPYPFVRTGSPRRIQLSQNHPVYISPHKNETMLSPREKIFYYFSNSPSKRLREINSMIRTGETPTKKRGILLEDGSESPAKRICPENHSALLRRLQDVANDRGSH
# Key:
# [1] = molecular target: T1, MTAF600 (microtubule associated factor 600) (human, UniProt Q5T4S7 1-5183); experiment: immunoprecipitation with RB antibody from HeLa extract, anti-MTAF600 immunoblot
# T1 construct: Native endogenous protein of HeLa nuclear extracts (5183 residues); also called MT-associated factor (MTAF) 600; 600 kDa subunit
# T1 sequence (Q5T4S7 other isoform, or with tags, fused parts or gaps limits assumed): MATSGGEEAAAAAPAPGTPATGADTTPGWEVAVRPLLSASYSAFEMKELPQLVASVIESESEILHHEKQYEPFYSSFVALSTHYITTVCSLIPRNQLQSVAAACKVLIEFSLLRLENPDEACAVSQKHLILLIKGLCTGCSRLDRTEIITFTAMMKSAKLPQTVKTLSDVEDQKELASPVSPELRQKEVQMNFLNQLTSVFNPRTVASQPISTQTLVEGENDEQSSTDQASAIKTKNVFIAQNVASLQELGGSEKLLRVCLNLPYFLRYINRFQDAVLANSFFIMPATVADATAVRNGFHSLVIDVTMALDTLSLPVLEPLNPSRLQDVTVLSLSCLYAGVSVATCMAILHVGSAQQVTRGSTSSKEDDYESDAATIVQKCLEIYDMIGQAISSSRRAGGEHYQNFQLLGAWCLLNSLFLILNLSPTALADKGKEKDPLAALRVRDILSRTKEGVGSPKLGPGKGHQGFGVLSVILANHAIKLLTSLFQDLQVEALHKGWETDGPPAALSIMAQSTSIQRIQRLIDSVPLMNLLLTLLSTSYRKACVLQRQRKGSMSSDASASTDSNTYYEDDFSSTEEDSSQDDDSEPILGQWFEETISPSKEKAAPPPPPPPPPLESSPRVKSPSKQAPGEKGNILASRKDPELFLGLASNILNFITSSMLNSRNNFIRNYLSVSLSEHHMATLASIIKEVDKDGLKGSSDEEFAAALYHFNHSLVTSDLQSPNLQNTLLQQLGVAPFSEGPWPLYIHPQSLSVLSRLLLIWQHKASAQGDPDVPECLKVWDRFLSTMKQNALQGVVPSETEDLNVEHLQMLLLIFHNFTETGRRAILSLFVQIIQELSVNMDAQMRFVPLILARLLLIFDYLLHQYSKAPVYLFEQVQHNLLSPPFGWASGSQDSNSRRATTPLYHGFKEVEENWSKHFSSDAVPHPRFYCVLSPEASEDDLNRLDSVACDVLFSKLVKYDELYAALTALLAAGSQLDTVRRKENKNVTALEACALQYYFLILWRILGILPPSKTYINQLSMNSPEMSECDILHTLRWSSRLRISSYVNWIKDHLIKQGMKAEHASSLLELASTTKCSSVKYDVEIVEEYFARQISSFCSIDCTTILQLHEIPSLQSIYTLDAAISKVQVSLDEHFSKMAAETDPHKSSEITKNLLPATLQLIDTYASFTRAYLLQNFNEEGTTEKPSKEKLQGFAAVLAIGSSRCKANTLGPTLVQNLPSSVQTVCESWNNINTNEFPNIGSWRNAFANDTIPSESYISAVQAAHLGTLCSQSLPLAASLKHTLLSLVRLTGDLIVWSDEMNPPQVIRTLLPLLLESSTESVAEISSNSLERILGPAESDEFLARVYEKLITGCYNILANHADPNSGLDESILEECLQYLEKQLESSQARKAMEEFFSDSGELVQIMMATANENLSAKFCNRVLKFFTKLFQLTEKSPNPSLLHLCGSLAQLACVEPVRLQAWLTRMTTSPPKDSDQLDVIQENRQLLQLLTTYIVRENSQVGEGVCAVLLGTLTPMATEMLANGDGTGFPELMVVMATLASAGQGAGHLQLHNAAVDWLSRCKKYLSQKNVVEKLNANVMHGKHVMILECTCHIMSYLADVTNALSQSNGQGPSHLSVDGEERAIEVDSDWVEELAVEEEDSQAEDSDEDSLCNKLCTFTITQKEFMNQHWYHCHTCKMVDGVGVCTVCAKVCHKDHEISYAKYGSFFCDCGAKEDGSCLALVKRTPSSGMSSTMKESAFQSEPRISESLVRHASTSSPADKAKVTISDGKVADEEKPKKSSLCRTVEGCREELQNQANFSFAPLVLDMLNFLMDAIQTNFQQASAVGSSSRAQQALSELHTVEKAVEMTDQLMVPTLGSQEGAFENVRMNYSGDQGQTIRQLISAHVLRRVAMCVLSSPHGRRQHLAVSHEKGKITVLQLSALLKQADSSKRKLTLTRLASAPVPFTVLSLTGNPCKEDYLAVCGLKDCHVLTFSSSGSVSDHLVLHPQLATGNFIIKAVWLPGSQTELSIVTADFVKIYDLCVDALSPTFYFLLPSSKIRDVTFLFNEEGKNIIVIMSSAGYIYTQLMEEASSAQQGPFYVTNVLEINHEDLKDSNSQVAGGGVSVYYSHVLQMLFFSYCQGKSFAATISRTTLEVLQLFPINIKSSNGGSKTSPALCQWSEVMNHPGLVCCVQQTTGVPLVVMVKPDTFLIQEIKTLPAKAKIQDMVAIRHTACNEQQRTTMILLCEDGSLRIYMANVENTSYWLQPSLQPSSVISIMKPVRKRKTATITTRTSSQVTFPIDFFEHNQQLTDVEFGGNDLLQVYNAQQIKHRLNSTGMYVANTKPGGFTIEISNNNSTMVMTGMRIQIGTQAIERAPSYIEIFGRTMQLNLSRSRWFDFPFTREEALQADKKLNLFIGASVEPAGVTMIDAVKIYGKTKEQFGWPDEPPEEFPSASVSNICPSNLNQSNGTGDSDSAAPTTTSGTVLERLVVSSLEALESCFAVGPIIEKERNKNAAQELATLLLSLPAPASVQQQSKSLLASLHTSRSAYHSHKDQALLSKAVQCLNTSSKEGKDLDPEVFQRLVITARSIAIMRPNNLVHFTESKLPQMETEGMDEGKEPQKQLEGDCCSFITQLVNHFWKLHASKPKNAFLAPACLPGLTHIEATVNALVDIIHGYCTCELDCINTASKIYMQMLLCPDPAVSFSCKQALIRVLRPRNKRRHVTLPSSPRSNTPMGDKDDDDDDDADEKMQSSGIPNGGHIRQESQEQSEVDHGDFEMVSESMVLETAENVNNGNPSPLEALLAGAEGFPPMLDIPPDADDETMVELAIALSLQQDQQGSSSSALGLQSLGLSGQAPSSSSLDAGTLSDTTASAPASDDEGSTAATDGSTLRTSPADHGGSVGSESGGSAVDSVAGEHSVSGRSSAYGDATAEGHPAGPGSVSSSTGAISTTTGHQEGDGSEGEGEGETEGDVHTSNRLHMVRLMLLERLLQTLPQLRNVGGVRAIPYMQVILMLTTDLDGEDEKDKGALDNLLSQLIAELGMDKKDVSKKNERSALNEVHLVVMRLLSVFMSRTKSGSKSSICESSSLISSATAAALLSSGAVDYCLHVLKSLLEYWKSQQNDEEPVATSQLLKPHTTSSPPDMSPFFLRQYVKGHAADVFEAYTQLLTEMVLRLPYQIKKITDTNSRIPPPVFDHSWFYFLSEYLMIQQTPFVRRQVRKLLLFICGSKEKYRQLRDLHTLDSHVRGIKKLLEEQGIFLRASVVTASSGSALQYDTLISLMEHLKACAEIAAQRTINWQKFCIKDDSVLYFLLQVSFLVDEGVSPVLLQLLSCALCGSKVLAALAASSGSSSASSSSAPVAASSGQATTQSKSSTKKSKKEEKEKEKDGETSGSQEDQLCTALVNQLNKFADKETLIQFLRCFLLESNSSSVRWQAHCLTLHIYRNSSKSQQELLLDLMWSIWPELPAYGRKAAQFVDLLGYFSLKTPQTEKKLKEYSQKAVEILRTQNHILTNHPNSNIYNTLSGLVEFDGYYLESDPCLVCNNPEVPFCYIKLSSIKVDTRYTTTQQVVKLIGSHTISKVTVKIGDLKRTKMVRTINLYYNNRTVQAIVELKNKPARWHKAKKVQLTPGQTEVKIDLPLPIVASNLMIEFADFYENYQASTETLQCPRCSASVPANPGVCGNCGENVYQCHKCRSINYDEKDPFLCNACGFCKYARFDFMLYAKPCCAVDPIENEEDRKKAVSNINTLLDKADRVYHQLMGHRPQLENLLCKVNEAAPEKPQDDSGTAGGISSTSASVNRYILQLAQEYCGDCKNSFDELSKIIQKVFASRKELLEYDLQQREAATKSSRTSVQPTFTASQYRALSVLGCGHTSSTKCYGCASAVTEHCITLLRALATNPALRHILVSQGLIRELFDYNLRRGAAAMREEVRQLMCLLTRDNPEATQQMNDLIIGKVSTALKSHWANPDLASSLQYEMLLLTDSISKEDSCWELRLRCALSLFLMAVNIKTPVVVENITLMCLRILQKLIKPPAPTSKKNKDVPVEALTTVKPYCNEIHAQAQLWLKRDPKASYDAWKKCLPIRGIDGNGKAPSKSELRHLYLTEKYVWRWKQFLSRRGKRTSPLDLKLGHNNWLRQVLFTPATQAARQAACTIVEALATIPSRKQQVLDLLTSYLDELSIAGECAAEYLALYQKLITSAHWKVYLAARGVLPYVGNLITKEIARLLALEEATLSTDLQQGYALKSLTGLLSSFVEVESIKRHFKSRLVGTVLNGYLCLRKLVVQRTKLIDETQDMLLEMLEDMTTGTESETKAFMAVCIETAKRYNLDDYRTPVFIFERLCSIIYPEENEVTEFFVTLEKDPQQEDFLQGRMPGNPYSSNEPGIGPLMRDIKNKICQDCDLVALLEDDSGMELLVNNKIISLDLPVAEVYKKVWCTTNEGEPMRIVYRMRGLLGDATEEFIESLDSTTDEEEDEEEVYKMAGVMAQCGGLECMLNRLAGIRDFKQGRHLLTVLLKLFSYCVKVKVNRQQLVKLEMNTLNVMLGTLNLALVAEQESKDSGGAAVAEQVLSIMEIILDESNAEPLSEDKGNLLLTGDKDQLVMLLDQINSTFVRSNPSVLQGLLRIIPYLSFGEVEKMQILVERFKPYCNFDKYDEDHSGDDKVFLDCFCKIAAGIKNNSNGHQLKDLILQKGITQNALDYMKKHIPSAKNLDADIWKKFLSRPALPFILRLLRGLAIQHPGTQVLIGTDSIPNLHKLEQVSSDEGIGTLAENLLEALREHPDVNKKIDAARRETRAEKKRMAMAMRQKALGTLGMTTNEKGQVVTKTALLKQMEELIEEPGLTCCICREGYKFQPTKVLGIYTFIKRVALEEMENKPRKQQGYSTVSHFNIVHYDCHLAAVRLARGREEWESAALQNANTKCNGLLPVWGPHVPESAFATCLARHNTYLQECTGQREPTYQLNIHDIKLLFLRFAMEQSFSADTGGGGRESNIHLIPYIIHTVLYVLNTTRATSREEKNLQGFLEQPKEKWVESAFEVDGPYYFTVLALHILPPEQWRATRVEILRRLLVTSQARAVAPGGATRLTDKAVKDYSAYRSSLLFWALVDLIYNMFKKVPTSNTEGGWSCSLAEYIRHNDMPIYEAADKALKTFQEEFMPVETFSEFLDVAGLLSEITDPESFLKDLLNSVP
# [2] = molecular target: T1, MTAF600 (microtubule associated factor …); experiment: anti-FLAG immunoprecipitation of C-terminally tagged RB from HeLa cells
# [3] = molecular target: T1, MTAF600 (microtubule associated factor …); experiment: immunoprecipitation with p107 antibody from HeLa extract, anti-MTAF600 immunoblot
# GST-RB (379-928) = molecular target: T2, GST-RB (379-928) (UniProt P06400 379-928); experiment: GST-RB (379-928) pull-down of His-tagged fragment from E. coli, Coomassie stain and anti-His immunoblot
# T2 construct: Expressed in E. coli; also called large pocket domain of RB as GST fusion; not shown: glutathione S-transferase (GST) fusion partner of vector pGEX6P-1
# T2 sequence (looked up): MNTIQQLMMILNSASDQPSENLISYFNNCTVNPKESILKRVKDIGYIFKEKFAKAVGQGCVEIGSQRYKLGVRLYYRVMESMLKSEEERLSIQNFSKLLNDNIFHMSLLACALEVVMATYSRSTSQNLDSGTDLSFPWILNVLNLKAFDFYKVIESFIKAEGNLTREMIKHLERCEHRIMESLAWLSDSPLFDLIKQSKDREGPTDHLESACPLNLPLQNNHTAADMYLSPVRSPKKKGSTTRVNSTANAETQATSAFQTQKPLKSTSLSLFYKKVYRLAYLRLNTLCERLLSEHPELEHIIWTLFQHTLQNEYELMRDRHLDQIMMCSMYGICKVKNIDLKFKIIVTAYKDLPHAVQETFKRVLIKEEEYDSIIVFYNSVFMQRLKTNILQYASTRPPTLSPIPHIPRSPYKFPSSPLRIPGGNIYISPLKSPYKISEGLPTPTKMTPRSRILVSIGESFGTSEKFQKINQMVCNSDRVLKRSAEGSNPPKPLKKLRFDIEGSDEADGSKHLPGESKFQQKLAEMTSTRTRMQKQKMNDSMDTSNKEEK
# [4] = molecular target: T1, MTAF600 (microtubule associated factor …); experiment: immunoprecipitation with p130 antibody from HeLa extract, anti-MTAF600 immunoblot
binder,measurement,setting,value
B1,binding result,[1],binds
B2,binding result,[2],binds
B3,binding result,[3],binds
B4,binding result,GST-RB (379-928),no binding
B5,binding result,[4],binds
